Test results taken from patent publication US20060263331A1, “Therapeutic use of tumor necrosis factor-alpha mutein” (priority 2002, published 2006).

How the values were obtained:
Type in all cases: in vivo, human
[1] = system: malignant pleural effusion or ascites; assay: Clinical monotherapy of rhTNFm1, malignant pleural effusion or ascites (Total); conditions: 169 patients
Source text: (§1) Patients were selected based on the following criteria: i) measurable, objective tumor; ii) Karnofsky performance status (KPS)≧60; iii) age 18-75; iv) major organs in basically normal condition; v) no chemotherapy, radiotherapy and biologic therapy within the last month; vi) predicted ≧3 mon. survival; and vii) with patient's informed consent signed.
(§2) Patients were excluded based on the following criteria: i) with history of allergic reactions to TNF or its derivatives; ii) pregnant or lactating women; iii) major organs with obvious damages or malfunction; iv) in ≧38° C. fever; v) with obvious tendency to haemorrhage; vi) with history of hypo- or hypertension; vii) with serious albuminemia; and viii) with strong tendency of disobedience or resistance.
(§3) Patients were removed from the evaluation if any of the following conditions apply: i) treatment was not completed according to the protocol; ii) incomplete records; and iii) treatment using cancer therapies not in the protocol. However, patients who withdrew due to adverse reactions to the therapy were still included in the evaluation.
(§4) The results of the treatment of malignant pleural effusion (or hydrothorax) and ascites were evaluated based on a modified Millar standard (Millar J W, Hunfer A M, Home N W. (1980) “Inerapleural immunotherapy with CP”, in Recurrent Malignant Pleural Effusions. Thorax 35:856): i) complete response (CR)—complete disappearance of pleural effusion or ascites for at least 1 month; ii) partial response (PR)—reduction by at least 1 grade for at least 1 month; iii) minimum response (MR)—reduction in the levels of pleural effusion or ascites within the same grade for at least 1 month; iv) stabilized (SD)—levels of pleural effusion or ascites maintained within the same grade for at least 1 month; and progressed (PD): increase in the levels of pleural effusion or ascites compared with those before the treatment.
(§5) Patients rested on day 1 and 2. The treatment cycle was 3-4 weeks.
(§6) It is noted that Table III includes the patients who withdrew due to […], including 1 with malignant pleural effusion and 1 with malignant ascites. For patients with malignant ascites, rhTNFm1 was reconstituted in 30-50 ml normal saline and administered intraperitoneally (i.p.) at 2,000,000-3,000,000 units each time, 1-2 times a week, with 2-3 weeks as one treatment cycle. Optionally, rhTNFm1 was administered to the patients by alternating between i.p. injection and i.v. injection (at 600,000-900,000 unit/m^2 per day continuing for 28 days as one treatment cycle). On the day when rhTNFm1 was administered via i.p. injection, administration of rhTNFm1 via i.v. injection was stopped.

[2] = system: Colon Cancer; assay: Clinical monotherapy of rhTNFm1, colon cancer; conditions: 7 patients
Source text: as §1, §2, §3
(§7) The results of the treatment of tumors were evaluated based the following criteria: i) complete response (CR)—complete disappearance of observable pathological changes for at least 4 weeks; ii) partial response (PR)—reduction by ≧50% in tumor size measured by the product of the maximum circular and vertical dimensions for at least 4 weeks; iii) minimum response (MR)—reduction by >25% but <50% in tumor size measured by the product of the maximum circular and vertical dimensions for at least 4 weeks; iv) stabilized (SD)—reduction by ≦25% but without increase by >25% in tumor size measured by the product of the maximum circular and vertical dimensions for at least 4 weeks; and progression (PD): increase by >25% in tumor size in one or more sites.
as §5

[3] = system: Kidney Cancer; assay: Clinical monotherapy of rhTNFm1, kidney cancer; conditions: 3 patients
Source text: as §1, §2, §3, §7, §5

[4] = system: Malignant melanoma; assay: Clinical monotherapy of rhTNFm1, malignant melanoma; conditions: 18 patients
Source text: as §1, §2, §3, §7, §5

[5] = system: Breast Cancer; assay: Clinical monotherapy of rhTNFm1, breast cancer; conditions: 10 patients
Source text: as §1, §2, §3, §7, §5

[6] = KPS of patients treated with rhTNFm1 alone; conditions: P=0.013, particularly malignant pleural effusion
Source text: as §1, §5

[7] = system: malignant ascites; assay: Clinical monotherapy of rhTNFm1, malignant ascites; conditions: 28 patients, monotherapy i.p.
Source text: as §1, §2, §3, §4, §6

[8] = system: Liver Cancer; assay: Clinical monotherapy of rhTNFm1, liver cancer; conditions: 12 patients
Source text: as §1, §2, §3, §7, §5

[9] = system: malignant pleural effusion; assay: Clinical monotherapy of rhTNFm1, malignant pleural effusion; conditions: 141 patients
Source text: as §1, §2, §3, §4, §5, §6

[10] = system: Lung Cancer; assay: Clinical monotherapy of rhTNFm1, lung cancer
Source text: as §1, §2, §3, §7, §5

[11] = Lung Cancer, 20 patients, monotherapy
[12] = patient count, Lung Cancer, 20 patients, monotherapy

B1: rhTNFm1: Recombinant human TNF-α mutant 1 expressed in E. coli; SEQ ID NO: 3 with N-terminal methionine (FIG. 1, 2) (protein)
chain: MRKRKPVAHVVANPQAEGQLQWLNRRANALLANGVELRDNQLVVPSEGLYLIYSQVLFKGQGCPSTHVLLTHTISRIAVSYQTKVNLLSAIKSPCQRETPEGAEAKPWYEPIYLGGVFQLEKGDRLSAEINRPDYLDFAESGQVYFGIIAQ
modifications: rhTNFm1 with Met
- Response Rate (%) CR [1]: 8.88%
- Response Rate (%) CR + PR [1]: 69.23%
- Response Rate (%) PR [1]: 60.36%
- Efficacy CR ([1]; patient count): 15
- Efficacy MR ([1]; patient count): 12
- Efficacy PD ([1]; patient count): 2
- Efficacy PR ([1]; patient count): 102
- Efficacy SD ([1]; patient count): 38
- Response Rate (%) CR [2]: 0.00%
- Response Rate (%) CR + PR [2]: 0.00%
- Response Rate (%) PR [2]: 0.00%
- Efficacy CR ([2]; patient count): 0
- Efficacy MR ([2]; patient count): 0
- Efficacy PD ([2]; patient count): 4
- Efficacy PR ([2]; patient count): 0
- Efficacy SD ([2]; patient count): 3
- Response Rate (%) CR [3]: 0.00%
- Response Rate (%) CR + PR [3]: 0.00%
- Response Rate (%) PR [3]: 0.00%
- Efficacy CR ([3]; patient count): 0
- Efficacy MR ([3]; patient count): 1
- Efficacy PD ([3]; patient count): 1
- Efficacy PR ([3]; patient count): 0
- Efficacy SD ([3]; patient count): 1
- Response Rate (%) CR [4]: 0.00%
- Response Rate (%) CR + PR [4]: 11.11%
- Response Rate (%) PR [4]: 11.11%
- Efficacy CR ([4]; patient count): 0
- Efficacy MR ([4]; patient count): 3
- Efficacy PD ([4]; patient count): 3
- Efficacy PR ([4]; patient count): 2
- Efficacy SD ([4]; patient count): 10
- Response Rate (%) CR [5]: 0.00%
- Response Rate (%) CR + PR [5]: 0.00%
- Response Rate (%) PR [5]: 0.00%
- Efficacy CR ([5]; patient count): 0
- Efficacy MR ([5]; patient count): 0
- Efficacy PD ([5]; patient count): 4
- Efficacy PR ([5]; patient count): 0
- Efficacy SD ([5]; patient count): 6
- KPS compared to that prior to the treatment [6]: significantly improved
- Response Rate (%) CR [7]: 3.57%
- Response Rate (%) CR + PR [7]: 42.86%
- Response Rate (%) PR [7]: 39.29%
- Efficacy CR ([7]; patient count): 1
- Efficacy MR ([7]; patient count): 3
- Efficacy PD ([7]; patient count): 1
- Efficacy PR ([7]; patient count): 11
- Efficacy SD ([7]; patient count): 12
- Response Rate (%) CR [8]: 0.00%
- Response Rate (%) CR + PR [8]: 0.00%
- Response Rate (%) PR [8]: 0.00%
- Efficacy CR ([8]; patient count): 0
- Efficacy MR ([8]; patient count): 0
- Efficacy PD ([8]; patient count): 2
- Efficacy PR ([8]; patient count): 0
- Efficacy SD ([8]; patient count): 10
- Response Rate (%) CR [9]: 9.93%
- Response Rate (%) PR [9]: 64.54%
- Efficacy CR ([9]; patient count): 14
- Efficacy MR ([9]; patient count): 9
- Efficacy PD ([9]; patient count): 1
- Efficacy PR ([9]; patient count): 91
- Efficacy SD ([9]; patient count): 26
- Response Rate (%) CR [10, 11]: 0.00%
- Response Rate (%) CR + PR [10, 11]: 5.00%
- Response Rate (%) PR [10, 11]: 5.00%
- pleural fluid, reexamination about 1 month later ([10]; one lung cancer patient): little pleural fluid remained
- tumor diameter, reexamination about 1 month later, CT scanning ([10]; one lung cancer patient): 3.5 cm
- tumor diameter after the treatment, CT scanning ([10]; one lung cancer patient, before 5 cm): 2.5 cm
- quality of life score after the treatment ([10]; one lung cancer patient, before 40): 53
- KPS after the treatment ([10]; one lung cancer patient, before 70): 90
- pleural fluid after the treatment ([10]; one lung cancer patient, before a large amount of pleural fluid): small amount of pleural fluid remained
- Efficacy CR [10, 12]: 0
- Efficacy MR [10, 12]: 2
- Efficacy PD [10, 12]: 4
- Efficacy PR [10, 12]: 1
- Efficacy SD [10, 12]: 13
